Reference: IntAct's records for PubMed 21212807

B1: TRAF family member-associated NF-kappa-B activator (Homo sapiens), Q92844 (parent)
chain: MDKNIGEQLNKAYEAFRQACMDRDSAVKELQQKTENYEQRIREQQEQLSLQQTIIDKLKSQLLLVNSTQDNNYGCVPLLEDSETRKNNLTLDQPQDKVISGIAREKLPKVRRQEVSSPRKETSARSLGSPLLHERGNIEKTFWDLKEEFHKICMLAKAQKDHLSKLNIPDTATETQCSVPIQCTDKTDKQEALFKPQAKDDINRGAPSITSVTPRGLCRDEEDTSFESLSKFNVKFPPMDNDSTFLHSTPERPGILSPATSEAVCQEKFNMEFRDNPGNFVKTEETLFEIQGIDPIASAIQNLKTTDKTKPSNLVNTCIRTTLDRAACLPPGDHNALYVNSFPLLDPSDAPFPSLDSPGKAIRGPQQPIWKPFPNQDSDSVVLSGTDSELHIPRVCEFCQAVFPPSITSRGDFLRHLNSHFNGET
partner: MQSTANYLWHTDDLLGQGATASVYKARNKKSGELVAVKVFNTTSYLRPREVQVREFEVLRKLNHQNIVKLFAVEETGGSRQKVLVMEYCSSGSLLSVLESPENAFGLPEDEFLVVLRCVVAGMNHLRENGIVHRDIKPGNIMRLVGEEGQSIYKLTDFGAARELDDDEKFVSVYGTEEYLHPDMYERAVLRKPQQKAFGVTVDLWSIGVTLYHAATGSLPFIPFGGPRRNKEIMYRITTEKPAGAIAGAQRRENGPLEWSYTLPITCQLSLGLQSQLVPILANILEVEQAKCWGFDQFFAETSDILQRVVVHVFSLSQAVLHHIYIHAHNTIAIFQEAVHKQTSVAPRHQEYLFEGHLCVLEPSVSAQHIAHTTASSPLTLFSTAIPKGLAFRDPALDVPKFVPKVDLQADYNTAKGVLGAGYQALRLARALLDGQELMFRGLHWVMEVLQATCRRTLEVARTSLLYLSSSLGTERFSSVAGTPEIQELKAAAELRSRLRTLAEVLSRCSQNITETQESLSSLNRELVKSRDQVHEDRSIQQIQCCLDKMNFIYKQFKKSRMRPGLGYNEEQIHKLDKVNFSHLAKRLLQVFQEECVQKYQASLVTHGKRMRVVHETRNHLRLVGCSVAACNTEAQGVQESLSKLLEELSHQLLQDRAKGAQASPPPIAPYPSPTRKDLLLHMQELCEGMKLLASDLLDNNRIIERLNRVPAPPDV

Variants of: B1
Conditions: with ikke_human IKBKE

Variant | effect of a mutation on the interaction
MDKNIGEQLNKAYEAFRQACMDRDSAVKELQQKTENYEQRIREQQEQLSLQQTIIDKLKSQLLLVNSTQDNNYGCVPLLEDSETRKNNLTLDQPQDKVISGIAREKLPKVRRQEVSSPRKETSARSLGSPLLHERGNIEKTFWDLKEEFHKICMLAKAQKDHLSKLNIPDTATETQCSVPIQCTDKTDKQEALFKPQAKDDINRGAPSITSVTPRGLCRDEEDTSFESLSKFNVKFPPMDNDSTFLHSTPERPGILSPATSEAVCQEKFNMEFRDNPGNFVRTEETLFEIQGIDPIASAIQNLKTTDKTKPSNLVNTCIRTTLDRAACLPPGDHNALYVNSFPLLDPSDAPFPSLDSPGKAIRGPQQPIWKPFPNQDSDSVVLSGTDSELHIPRVCEFCQAVFPPSITSRGDFLRHLNSHFNGET [K282R] | increasing interaction
